A short description of this data set: yeast display, Sf9 membrane polyspecificity reagent, FACS + sequencing; frameworks hold sequencing errors. A digest of the protocol:
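Sorting gates, low and high (top ~1%), were placed on anti-HA fluorescence to track expression and on streptavidin fluorescence to track reagent binding. A clone's polyreactivity label is taken from the gate it came out of. The reagent was 10% biotinylated, detergent-solubilized Sf9 membrane, applied for 1 hour at 4 °C to galactose-induced yeast display cells.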
On to “QVQLVESGGGLVQAGGSLRLSCAASGSTFYYYAMGWYRQAPGKESELVAAISPSGDSTYNADSVKGRFTISRENSKNTVYLQMNSLKPEDTAVYYFAAQYYFYPQEFDDWGQGTQVTVSS”, for which the “polyreactivity (PSR sort gate)” value is reported as “low polyreactivity”. In the case of “QVQLVESGGGLVQAGGSLRLSCAASGSTFYYYAMGWYSQAPGKERDLVAVISWGGGSTYYADSVKGRFTISRDNAKNTVYLQMNSLKPEDTAVYYCAAVYDAYQTTDEYDYWGQGTQVTVSS”, the “polyreactivity (PSR sort gate)” value is “low polyreactivity”.

As to “QVQLVESGGGLVQAGGSLRLSCAASGSTFYYYVRGWYRQAPGKERELVAAINSGGSTYYADSVKGRFTISRDNAKNTVYLQMNSLKPEDTAVYYCAKSWSYWYQYYYWGQGSQVTVSS”, the “polyreactivity (PSR sort gate)” value is “low polyreactivity”. With “QVQLVESGGGLVQAGGSLRLSCAASGSTHNQNAMGWSRQAPGKETELVAAISSNGGTTYYADSVKWRFTISRDNAKNTVYLQMNSLKQEDTAVYYCAADWDRYVPRSYYRVSWYDYWGQGTQVTVSS”, the “polyreactivity (PSR sort gate)” value was “low polyreactivity”. Turning to “QVQLVESGGGLVQAGGSLRLSCAASGSTIDTYAMGWYRQAPGKERELVAAIRYTGGRTYYADSVKGRCTISSDNAKNTVYLHMNSLKPEDTAVYYCNADGTKWVRETYDYWGQGTQVTVSS”, the “polyreactivity (PSR sort gate)” value was “low polyreactivity”. With “QVQLVESGGGLVQAGGSLRLSCAASGSTIEDNTMGWYRQAPGKERELVAAISNSGGSTYYADSVKGRFTISRDYAKNTVYLQMISLKPEDTAVYYCAADFYDPFDYWGQGTQVTVSS”, the “polyreactivity (PSR sort gate)” value is listed as “low polyreactivity”. Turning to “QVQLVESGGGLVQAGGSLRLSCAASGSTIEDYAMGWYRQAPGKERELVAAISWRSDITYYADSVKGRFTISRDNAKNTVYLQMNSLKPEDTAVYYCAADNSYHWLDREFDYEFDYWGQGTQVTVSS”, the “polyreactivity (PSR sort gate)” value is “high polyreactivity”. “QVQLVESGGGLVQAGGSLRLSCAASGSTIFENVMGWYRQAPGKEREFVAAINTSGGSTYYADSVKGRFTISRDNAKNTVYLQMNILKPEDTAVYYCARDSYWELDYWGQGTQVTVSS”: the “polyreactivity (PSR sort gate)” value is reported as “low polyreactivity”. Take “QVQLVESGGGLVQAGGSLRLSCAASGSTIFGNVMGWYRQAPGKERELVAVITNRGGSTYYADSVKGRFTISRDNAKNTVYLQMNSLKPEDTAVYYCATRSRPRSYYYWGQGTQVTVSS”: the “polyreactivity (PSR sort gate)” value is “high polyreactivity”. Take “QVQLVESGGGLVQAGGSLRLSCAASGSTIFGNVMGWYRQAPGKERELVAVITNRGGSTYYADSVKGRFTISRDNAKNTVYLQMNSLTPEDTAVYYCNARPLYHFWYYSGEEYGYWGQGTQVSVSS”: the “polyreactivity (PSR sort gate)” value was “high polyreactivity”. Regarding “QVQLVESGGGLVQAGGSLRLSCAASGSTIFSYAMGWYRQAPGKERELVAAISWIDDGTYYADSVKGRFTISRDNAKNTVYLQMNSLKPEDTAVYYCAADIGAYRTWDYEYWGQGTQVTVSS”, the “polyreactivity (PSR sort gate)” value was “low polyreactivity”. Under “QVQLVESGGGLVQAGGSLRLSCAASGSTIGAYAMGWYRQAPGKERELVAAITFSVGSTYYADSVKGRFTISRDNAKNTVYLQMNSLKPEDTAVYYCAADYYIYRSKYYQSTIQGYYYWGQGTQVTVSS” stands “high polyreactivity”. Turning to “QVQLVESGGGLVQAGGSLRLSCAASGSTIGGYAMGWYRQAPGKERELVAAISWDDVRTYYADSVKGRFTISRDNAKNTVYLLMNSLKPEDTAVYYCNTDGLIAIRGLWWVEYDYWGQGTQVTVSS”, the “polyreactivity (PSR sort gate)” value is recorded as “low polyreactivity”. As to “QVQLVESGGGLVQAGGSLRLSCAASGSTIGGYAMGWYRQAPGKERELVAAITRSGGRTYYADSVKGRFTISRDNAKKTVYLQMNSLKPEDTAVYFCATLVTNARYDSWGQGTQVTVSS”, the “polyreactivity (PSR sort gate)” value is listed as “high polyreactivity”. On to “QVQLVESGGGLVQAGGSLRLSCAASGSTIGSYAMRLSRQAPGTERELVAVITSDGRTNYADSVKGRFTISRDNAKNTVYLQMNSLKPEDTAVYYCAAGYGRWRYGTGVYDNYYYWGQGTQVTVSS”, for which the “polyreactivity (PSR sort gate)” value is “low polyreactivity”.

On to “QVQLVESGGGLVQAGGSLRLSCAASGSTINKYAMGWYRQAPGKERELVAAISRSGGSTNYADSVKGRFTISRDNAKNTVYLQMNSLKPEDTAVYYCNAGYGRWQRHDYWGQGTQVTVSS”, for which the “polyreactivity (PSR sort gate)” value is given as “high polyreactivity”. Under “QVQLVESGGGLVQAGGSLRLSCAASGSTINQYPMGWYRQAPGKERDLVAAITRRGGSTYYADSVKGRCTISSDNAKNTVYLQLNSLKPEDTAVYYCAAAYPYTTVSYDYWGQGTQVTVSS” stands “high polyreactivity”; under “QVQLVESGGGLVQAGGSLRLSCAASGSTIPGNAMGWYRQAHGKERELVASISGGGDSTYYADSVKGRFTISRDNAKNTVYLQMKSLKPEDTAVYYCAADYRQEPGYTGYYYLGQGTQVTVSS”, “low polyreactivity”; under “QVQLVESGGGLVQAGGSLRLSCAASGSTIPPNAMGWYRQAPGKERELVAVISNGGSNTRYADSVKGRFTISRDNAKNTVYLQMNRLKPEDTAVYYCAADYEYSGYGYWGQGTQVTVSS”, “high polyreactivity”. Turning to “QVQLVESGGGLVQAGGSLRLSCAASGSTIPRYAMGWYRQAPGKERELVAAISGRGGSTYYADSVKGRFTISRDNAKNSFYFQLISLKPEDTAVYYCNAYRRYYTMYYWGQGTQVTVSS”, the “polyreactivity (PSR sort gate)” value is listed as “high polyreactivity”. With “QVQLVESGGGLVQAGGSLRLSCAASGSTIPSYAMGWYRPAPGKETELVASITYSDGTTRYADSVKGRFTISRDNAKNTVYLQMNSLIPEDTAVYYCNAVYYREGMDYWGQGTQVTVSS”, the “polyreactivity (PSR sort gate)” value was “low polyreactivity”.

As to “QVQLVESGGGLVQAGGSLRLSCAASGSTIRLYAMGWYRQAPGKESELVAAISVSGGSTHYADSVKGRFTISRDNAKNTVYLQMNSLKPEYTAVYYFNAAGNPVSRYHYDYWGQGTQVTVSS”, the “polyreactivity (PSR sort gate)” value is “high polyreactivity”. In the case of “QVQLVESGGGLVQAGGSLRLSCAASGSTIRNYAMGWYRQAPGKERELVAAISSGGRTYYADSVKGRFTISRDNAKNTVYLQMNSLKPEDTAVYYCKGRSYSRMYYWGQGTQVTVSS”, the “polyreactivity (PSR sort gate)” value is on record as “high polyreactivity”. Turning to “QVQLVESGGGLVQAGGSLRLSCAASGSTIRVYGMGWYRQAPGKERELVAAIRWIGGRTYYADSVKARFTISRDNAKNTVYLQMNSLKPEDTAVYYCNARAGPVRFDYWGQGTQVTVAS”, the “polyreactivity (PSR sort gate)” value is “low polyreactivity”.

With “QVQLVESGGGLVQAGGSLRLSCAASGSTIRYNAMGWYRQAPGKERELVAAISRSGGSTYYADSVKGRFTISRDNAKNTVYLQRTSLKTEDTAVYYCAADRGARGDYWGQGTQVTVSS”, the “polyreactivity (PSR sort gate)” value is “high polyreactivity”.

Turning to “QVQLVESGGGLVQAGGSLRLSCAASGSTIRYNAMGWYRQAPGKERELVAAISRTGGTTYYADSVKGRFTISRDNAKNTVYLQMNSLKPEDTAVYYCNAVQAPYLRYDYWGQGTQVTVSS”, the “polyreactivity (PSR sort gate)” value is listed as “high polyreactivity”. For “QVQLVESGGGLVQAGGSLRLSCAASGSTISFLIMGWYRQAPGKERELVAAISRSGGRTYYADSVKGRFTISRDNAKNTVYFQMNSLKPEDTAVYYCAADYVSVDRIRYGYWGQGTQVTVSS”, the “polyreactivity (PSR sort gate)” value is given as “high polyreactivity”. Take “QVQLVESGGGLVQAGGSLRLSCAASGSTITRYAMGWYRQAPGKERELVAVISRSGGSTYYADSVKGRFTISRDNAKNTVYLQMNSLKPEDTAVYYCAAKYYGGRRSPYSYGYWGQGTQVTVSS”: the “polyreactivity (PSR sort gate)” value is given as “high polyreactivity”. Regarding “QVQLVESGGGLVQAGGSLRLSCAASGSTIVRYAMGWYRQAPGKERELVAAISGGGSTSYADSVKGRFTISRDNAKNTVYLQMNSLKPEDTAVYYCAKAGYRSEFEYWGQGTQVTVSS”, the “polyreactivity (PSR sort gate)” value was “low polyreactivity”. In the case of “QVQLVESGGGLVQAGGSLRLSCAASGSTIWSNAMGWYIQAPGKERELVAVISGGTSTNYADSVKGRFTISRDNAKNTVYLQMNSLKPEDTAVYYCAADWGSYLILINDTEMDYWGQGTQVTVSS”, the “polyreactivity (PSR sort gate)” value was “low polyreactivity”.

In the case of “QVQLVESGGGLVQAGGSLRLSCAASGSTIYRYAMGGYRQAPGKERELVAAITWSGGSTYYADSVKGRFTISRDNAKNTVYLQMNSLKPADTAVYYCNAVARYYYKDQTIIHSPREDYWGQGTQVTVSS”, the “polyreactivity (PSR sort gate)” value is recorded as “low polyreactivity”.

Take “QVQLVESGGGLVQAGGSLRLSCAASGSTIYTYAMGWSRQAPGKERELVAAINRSGGTTYYADSVKGRFTISRDNAKNTVYLQMNSLKPEDTADYYCARRRYGYDYWGQGTQVTVSS”: the “polyreactivity (PSR sort gate)” value is recorded as “high polyreactivity”. Turning to “QVQLVESGGGLVQAGGSLRLSCAASGSTIYTYVMGWYIQAPGKERELVAAISWSGSSTYYADSVKGRCTISRDNAKNTVYLQINSLKPEDTAVYYCNAKYRRGWWGVEYGYWGQGTQVTVSS”, the “polyreactivity (PSR sort gate)” value is listed as “low polyreactivity”. As for “QVQLVESGGGLVQAGGSLRLSCAASGSTIYVNAMGWYIQAPGKERELVAAIRSSAGNTTYADSVKGRFTISRDNAKNTVYLQMNSLKPEVTAVYYCAADSRPYLRDYWGQGTQVTVSS”, the “polyreactivity (PSR sort gate)” value is listed as “low polyreactivity”. In the case of “QVQLVESGGGLVQAGGSLRLSCAASGSTLAKKAMGWYRQEPGKERELVAAISKNGGTTYYADSVKGRFTISRDNAKNTVYLQMNSLKPEDTAVYYCAVSIWGWFASGFDYWGQGTQVTVSS”, the “polyreactivity (PSR sort gate)” value was “high polyreactivity”. As for “QVQLVESGGGLVQAGGSLRLSCAASGSTLALYTMGWYRQAPGKERELVAAISKNGGRTYYADSVKGRFTISRDNAKNTVYLKMNSLKPEDTAVYYCAAASGSYRGYDYWGQGTQVTVSS”, the “polyreactivity (PSR sort gate)” value is “high polyreactivity”.

In the case of “QVQLVESGGGLVQAGGSLRLSCAASGSTLAPYAMGGYRQAPGKERELVASINWGGTTTYYADSVKGRFTISRDNAKNTVYLQMNSLIPEDTAVYYCAALGLRWGRSGYYYEYYYWGQGTQVTVSS”, the “polyreactivity (PSR sort gate)” value is given as “high polyreactivity”. As for “QVQLVESGGGLVQAGGSLRLSCAASGSTLAQYAMGWYRQAPGKETELVADISWSGGSTYYADSVKGRFTISRDNAKNTVYLQMNSLKPDDTAVYYCNAYAFDSVREEDYWGQGTQGTVSS”, the “polyreactivity (PSR sort gate)” value is recorded as “low polyreactivity”. As for “QVQLVESGGGLVQAGGSLRLSCAASGSTLATYTMGWYRQAPGKERELVAAISFGGSTYYADSVKGRFTISRDNAKNTVYLQMNSLKPEDTAVYYCAVYGDSYWGAYYYSDGYWGQGSQVTVSS”, the “polyreactivity (PSR sort gate)” value is recorded as “low polyreactivity”.

Take “QVQLVESGGGLVQAGGSLRLSCAASGSTLAVYAKGWSRQAPGKERELVAVIDRGGSTYYADSVKGRFTISRDNAKNTVYLQLNCLKPEDTAVYFCNARRVKGYGYWGQGTQVTVSS”: the “polyreactivity (PSR sort gate)” value is “high polyreactivity”.

As for “QVQLVESGGGLVQAGGSLRLSCAASGSTLDIYAMGWYRQAPGKERELVAAITSGGSTNYADSVKGRFTISRDNAKTTVYLQLNSLKPEDTAVYSCNARYFRGYDYWGQGTQVSVSS”, the “polyreactivity (PSR sort gate)” value is on record as “high polyreactivity”.
